Assay results taken from patent publication US20040018971A1 (published 2004).

B1: Her2/neu.921.F1 (peptide)
peptide: FPYDGIPA
notes: 8-mer analog of the HER2/neu peptide starting at position 921
B2: Her2/neu.921.F1I8 (peptide)
peptide: FPYDGIPI
notes: as for B1
B3: Her2/neu.649.F1, 10-mer (peptide)
peptide: FPLTSIISAV
notes: 10-mer analog of the HER2/neu peptide starting at position 649; same label as the 9-mer in r40
B4: Her2/neu.649.F1I10 (peptide)
peptide: FPLTSIISAI
notes: 10-mer analog of the HER2/neu peptide starting at position 649
B5: Her2/neu.779.F1, 8-mer (peptide)
peptide: FPYVSRLL
notes: 8-mer analog of the HER2/neu peptide starting at position 779; same label as the 10-mer in r56
B6: Her2/neu.642.F1 (peptide)
peptide: FPAEQRASPL
notes: 10-mer analog of the HER2/neu peptide starting at position 642
B7: Her2/neu.706.F1, 10-mer (peptide)
peptide: FPNQAQMRIL
notes: 10-mer analog of the HER2/neu peptide starting at position 706; same label as the 9-mer in r49
B8: Her2/neu.706.I11 (peptide)
peptide: MPNQAQMRILI
notes: 11-mer analog of the HER2/neu peptide starting at position 706
B9: Her2/neu.779.F1, 10-mer (peptide)
peptide: FPYVSRLLGI
notes: 10-mer analog of the HER2/neu peptide starting at position 779; same label as the 8-mer in r55
B10: Her2/neu.884.F1I8 (peptide)
peptide: FPIKWMAI
notes: 8-mer analog of the HER2/neu peptide starting at position 884
B11: Her2/neu.884.F1 (peptide)
peptide: FPIKWMAL
notes: 8-mer analog of the HER2/neu peptide starting at position 884; also called FPIKWMAL
B12: Her2/neu.701.F1 (peptide)
peptide: FPSGAMPNQI
notes: the label names only F1 though the C-terminus is I

Key:
[1] = biological target: HLA-B*5101 (human); test: competition vs 125I-labeled standard peptide, purified HLA
[2] = biological target: HLA-B*5401 (human); test: as above
[3] = biological target: HLA-B*0702 (human); test: as above
[4] = biological target: HLA-B*3501 (human); test: as above
[5] = biological target: HLA-B*5301 (human); test: as above
[6] = biological target: HLA-A*1101 (human); test: inhibition of 125I-labelled probe peptide binding to purified HLA-A*1101, gel filtration; relative to standard peptide 940.06
[7] = biological target: T1, HLA-A*0301 (human); test: inhibition of 125I-labelled probe peptide binding to purified HLA-A*0301, gel filtration; ratio to standard peptide 941.12 ([..], 11 nM)
T1 construct: also called HLA-A3

Binder | IC50 [1] [µM] | IC50 [2] [µM] | IC50 [3] [µM] | IC50 [4] [µM] | IC50 [5] [µM] | relative binding ratio [6] | relative binding ratio (IC50 of standard peptide / IC50 of test peptide) [7]
B1 | 0.157 | 0.001 | 0.423 | 0.206 | 6.2 |  | 
B2 | 0.01 | 0.056 | 0.177 | 0.379 | 0.344 |  | 
PLPSETDGY (also called HER2/neu 1119-1127) [HER2/neu A11 motif peptide, position 1119, 9 amino acids] |  |  |  |  |  | 0.0002 ratio (IC50 of standard peptide / IC50 of test peptide) | 
B3 | 0.063 | 0.0012 | 0.22 | 0.3 | 2.91 |  | 
B4 | 0.026 | 0.0033 | 0.229 | 0.327 | 0.194 |  | 
GSGAFGTVY [HER2/neu peptide, position 727, 9 amino acids] |  |  |  |  |  |  | 0.0028
B5 | 0.0069 | 0.172 | 0.061 | 0.6 | 0.581 |  | 
GAGGMVHHR [HER2/neu peptide, position 1038, 9 amino acids] |  |  |  |  |  |  | 0.0002
PLTCSPQPEY [HER2/neu A11 motif peptide, position 1130, 10 amino acids] |  |  |  |  |  | 0.0002 ratio (IC50 of standard peptide / IC50 of test peptide) | 
B6 | 0.859 | 0.286 | 0.0014 | 0.248 | 8.46 |  | 
PAGATLERPK (also called HER2/neu 1162-1171) [HER2/neu A11 motif peptide, position 1162, 10 amino acids] |  |  |  |  |  | -0.0002 ratio (IC50 of standard peptide / IC50 of test peptide) | 
GSGAFGTVYK [HER2/neu peptide, position 727, 10 amino acids] |  |  |  |  |  |  | 0.066
QLVTQLMPY (also called HER2/neu 795-803) [HER2/neu A11 motif peptide, position 795, 9 amino acids] |  |  |  |  |  | 0.0039 ratio (IC50 of standard peptide / IC50 of test peptide) | 
B7 | 0.458 | 0.031 | 0.081 | 0.2 | 0.443 |  | 
MIDSECRPR [HER2/neu A11 motif peptide, position 960, 9 amino acids] |  |  |  |  |  | 0.0006 ratio (IC50 of standard peptide / IC50 of test peptide) | 
QVRQVPLQR (also called HER2/neu 90-98) [HER2/neu A11 motif peptide, position 90, 9 amino acids] |  |  |  |  |  | 0.0005 ratio (IC50 of standard peptide / IC50 of test peptide) | 
MGDLVDAEEY (also called HER2/neu 1014-1023) [HER2/neu A11 motif peptide, position 1014, 10 amino acids] |  |  |  |  |  | 0.0002 ratio (IC50 of standard peptide / IC50 of test peptide) | 
GTQRCEKCSK [HER2/neu peptide, position 327, 10 amino acids] |  |  |  |  |  |  | 0.021
B8 | 0.037 | 0.303 | 0.344 | 1.8 | 0.012 |  | 
GMEHLREVR [HER2/neu peptide, position 346, 9 amino acids] |  |  |  |  |  |  | -0.0002
B9 | 0.0079 | 0.0091 | 0.112 | 3.6 | 0.358 |  | 
B10 | 0.122 | 0.033 | 0.022 | 1.14 | 0.93 |  | 
B11 | 0.306 | 0.04 | 0.0006 | 0.248 | 0.547 |  | 
B12 | 0.131 | 0.1 | 0.229 | 6.55 | 0.775 |  | 
GILIKRRQQK [HER2/neu peptide, position 672, 10 amino acids] |  |  |  |  |  |  | 0.015
QALLHTANR (also called HER2/neu 491-499) [HER2/neu A11 motif peptide, position 491, 9 amino acids] |  |  |  |  |  | 0.001 ratio (IC50 of standard peptide / IC50 of test peptide) | 
